This assay has as its target EDB (+)-fibronectin in murine tumor sections (Mus musculus, UniProt P11276). As to the kind of experiment: immunostaining of cells or tissue.

The values below come from publication doi:10.1101/684100 (bioRxiv, 2019).

EDB (+)-fibronectin in murine tumor sections, sequence (P11276 33-2477): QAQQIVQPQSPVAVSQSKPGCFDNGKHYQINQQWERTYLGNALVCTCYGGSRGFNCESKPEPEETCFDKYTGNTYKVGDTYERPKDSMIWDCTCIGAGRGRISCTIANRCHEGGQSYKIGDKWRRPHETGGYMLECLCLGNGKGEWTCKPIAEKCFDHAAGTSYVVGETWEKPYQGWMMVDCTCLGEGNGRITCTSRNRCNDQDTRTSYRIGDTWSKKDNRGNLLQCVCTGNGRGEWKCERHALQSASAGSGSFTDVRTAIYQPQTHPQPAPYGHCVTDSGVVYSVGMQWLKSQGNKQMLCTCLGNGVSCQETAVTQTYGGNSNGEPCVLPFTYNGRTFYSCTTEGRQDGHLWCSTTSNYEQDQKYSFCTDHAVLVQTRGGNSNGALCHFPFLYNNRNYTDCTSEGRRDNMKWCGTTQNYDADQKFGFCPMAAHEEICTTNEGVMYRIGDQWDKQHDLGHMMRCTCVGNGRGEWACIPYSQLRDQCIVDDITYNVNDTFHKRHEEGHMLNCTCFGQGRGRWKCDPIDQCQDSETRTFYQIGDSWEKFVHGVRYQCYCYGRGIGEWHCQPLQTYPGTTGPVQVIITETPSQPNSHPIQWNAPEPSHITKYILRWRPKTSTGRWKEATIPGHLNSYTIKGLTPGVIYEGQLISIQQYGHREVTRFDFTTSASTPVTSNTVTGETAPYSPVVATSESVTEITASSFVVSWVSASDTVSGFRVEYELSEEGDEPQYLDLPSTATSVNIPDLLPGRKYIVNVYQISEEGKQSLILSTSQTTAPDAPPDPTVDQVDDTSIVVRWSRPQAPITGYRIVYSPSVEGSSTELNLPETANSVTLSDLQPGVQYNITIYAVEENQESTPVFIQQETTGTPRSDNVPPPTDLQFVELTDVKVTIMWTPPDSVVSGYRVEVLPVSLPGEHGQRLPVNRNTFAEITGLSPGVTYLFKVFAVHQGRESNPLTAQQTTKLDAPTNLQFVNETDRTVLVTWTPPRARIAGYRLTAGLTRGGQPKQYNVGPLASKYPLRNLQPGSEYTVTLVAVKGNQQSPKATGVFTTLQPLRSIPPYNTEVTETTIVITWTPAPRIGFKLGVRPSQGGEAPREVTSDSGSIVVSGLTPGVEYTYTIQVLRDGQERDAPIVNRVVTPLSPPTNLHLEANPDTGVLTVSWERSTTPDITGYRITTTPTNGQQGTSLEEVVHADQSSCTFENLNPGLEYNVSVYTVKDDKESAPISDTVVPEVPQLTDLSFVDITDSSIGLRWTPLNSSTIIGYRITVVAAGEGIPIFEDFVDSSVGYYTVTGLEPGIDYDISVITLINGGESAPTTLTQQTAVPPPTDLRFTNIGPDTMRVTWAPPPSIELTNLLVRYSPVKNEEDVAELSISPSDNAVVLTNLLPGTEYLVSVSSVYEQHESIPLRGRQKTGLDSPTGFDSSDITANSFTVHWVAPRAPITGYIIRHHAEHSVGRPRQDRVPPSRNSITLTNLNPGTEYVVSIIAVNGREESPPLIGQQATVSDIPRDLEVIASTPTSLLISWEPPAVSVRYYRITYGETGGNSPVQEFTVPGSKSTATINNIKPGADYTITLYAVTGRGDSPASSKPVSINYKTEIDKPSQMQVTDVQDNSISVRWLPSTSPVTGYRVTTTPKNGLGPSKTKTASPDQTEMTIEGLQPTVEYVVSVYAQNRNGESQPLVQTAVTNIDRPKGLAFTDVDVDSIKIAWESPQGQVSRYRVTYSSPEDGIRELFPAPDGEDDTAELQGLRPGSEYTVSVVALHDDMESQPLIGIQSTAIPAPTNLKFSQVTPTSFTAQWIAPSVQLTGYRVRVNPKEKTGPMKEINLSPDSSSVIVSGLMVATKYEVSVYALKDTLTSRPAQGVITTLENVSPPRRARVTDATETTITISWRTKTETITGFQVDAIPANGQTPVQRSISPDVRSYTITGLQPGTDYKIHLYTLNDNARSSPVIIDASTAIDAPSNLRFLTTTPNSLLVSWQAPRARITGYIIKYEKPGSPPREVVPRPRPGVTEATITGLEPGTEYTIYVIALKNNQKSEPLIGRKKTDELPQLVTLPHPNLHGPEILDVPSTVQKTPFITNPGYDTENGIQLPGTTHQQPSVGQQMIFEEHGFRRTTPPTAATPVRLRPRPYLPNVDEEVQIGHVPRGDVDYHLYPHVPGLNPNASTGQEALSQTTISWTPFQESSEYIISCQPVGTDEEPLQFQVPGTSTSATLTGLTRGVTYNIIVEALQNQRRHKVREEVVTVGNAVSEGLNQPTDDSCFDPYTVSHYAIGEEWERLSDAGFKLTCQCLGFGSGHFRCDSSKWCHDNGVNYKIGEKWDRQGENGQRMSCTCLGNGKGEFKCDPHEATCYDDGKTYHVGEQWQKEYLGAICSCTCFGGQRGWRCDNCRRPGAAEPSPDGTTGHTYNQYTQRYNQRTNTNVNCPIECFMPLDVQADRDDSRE

B1: FITC-labeled L19 IgG1 (antibody, V domains shown)
VH: EVQLLESGGGLVQPGGSLRLSCAASGFTFSSFSMSWVRQAPGKGLEWVSSISGSSGTTYYADSVKGRFTISRDNSKNTLYLQMNSLRAEDTAVYYCAKPFPYFDYWGQGTLVTVSS
VL: EIVLTQSPGTLSLSPGERATLSCRASQSVSSSFLAWYQQKPGQAPRLLIYYASSRATGIPDRFSGSGSGTDFTLTISRLEPEDFAVYYCQQTGRIPPTFGQGTKVEIK
Turning to B1, the binding result was “binds”.
